Reference: patent US20240301076A1 (CEPHALON, published 2024)

T1: human CXCR2 (human, UniProt P25025 1-360)
T1 construct: also called CXC chemokine receptor 2; hCXCR2
T1 sequence: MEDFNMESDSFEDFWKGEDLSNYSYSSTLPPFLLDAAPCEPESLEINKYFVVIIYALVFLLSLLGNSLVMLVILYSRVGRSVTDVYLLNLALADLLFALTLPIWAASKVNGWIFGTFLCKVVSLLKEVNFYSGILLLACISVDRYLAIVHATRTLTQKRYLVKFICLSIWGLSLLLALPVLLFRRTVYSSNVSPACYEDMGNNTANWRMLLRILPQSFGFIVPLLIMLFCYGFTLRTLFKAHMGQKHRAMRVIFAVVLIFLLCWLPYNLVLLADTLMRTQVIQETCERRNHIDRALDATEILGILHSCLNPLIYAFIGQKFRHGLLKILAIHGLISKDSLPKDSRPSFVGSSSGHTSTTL


Legend:
human CXCR2 [1] = molecular target: T1, human CXCR2; assay: flow cytometry, CXCR2-transfected Expi293F cells
Experimental: (§1) Harvested cells were resuspended in FACS buffer (1×PBS+0.5% (w/v) bovine serum albumin (BSA)+2 mM EDTA pH 7.2). Approximately 2×10⁵ cells were added per well in a 96-well round-bottomed plate. Cells were pelleted by centrifugation at 400 g for 5 mins at 4° C. and supernatants discarded. 25 μL of each test antibody or control antibody was added to the cells and incubated for 30 minutes at 4° C. Cells were washed twice in 100 μL FACS buffer followed by centrifugation at 400 g for 5 mins at 4° C.
(§2) For detection, 50 μL of secondary antibody (Table 2) was added to relevant samples. Commercially available antibodies that bound to transfected CXCR family members were used as positive controls to ensure that the cells were expressing the receptors. Cells were washed twice in 200 μL of FACS buffer followed by centrifugation at 400 g for 5 mins at 4° C. Before sample acquisition, cells were resuspended in 100 μL of FACS buffer. Samples were acquired using the high throughput sampler on a FACSCanto™ II cytometer (Beckton-Dickinson).
Each heavy chain was co-expressed with each light chain to produce a sequence optimized antibody variant. Antibodies were purified and tested for CXCR2 binding activity as described in General Methods.

human CXCR2 [2] = molecular target: T1, human CXCR2; assay: cell-based or functional assay
human CXCR2 [3] = molecular target: T1, human CXCR2; assay: flow cytometry, CXCR2-transfected Expi293F cells; remark: listed apart in the source
Experimental: as §1, §2
Each variant heavy chain was co-expressed with the parental light chain and vice versa.

Binder | EC50 (human CXCR2 [1]) | Fold Improvement over 4A8 WT (human CXCR2 [1]) | IC50, CXCL1, Tango assay (human CXCR2 [2]) | IC50, CXCL8, Tango assay (human CXCR2 [2]) | Fold change in binding relative to BKO-4A8 (human CXCR2 [3])
BKO-4A8 combinatorial variant 3c (antibody, human IgG4 S228P, lambda, V domains shown, IgG4 S228P, lambda) VH: EVQLLESGGGLVQPGGSLRLSCAASGFTFSSSTQSWVRQPPGKGLEWVSAISGRGRSTYYADSVKGRFTISRDNSKNTLYLQMNSLRAEDTAVYYCAIQMGYWGQGILVTVSS VL: QSALTQPPSASGSPGQSVTISCIGTSSDVGGYNYVSWYQQHPGKAPKLMIYEVSKRPSGVPDRFSGSKSGNTASLTVSGLQAEDEADYYCSSYAGSNNFGVFGGGTKLTVLG | 0.2 nM | 2 fold |  |  | 
BKO-4A8 combinatorial variant 7c (antibody, human IgG4 S228P, lambda, V domains shown, IgG4 S228P, lambda) VH: EVQLLESGGGLVQPGGSLRLSCAASGFTFSSSTQSWVRQPPGKGLEWVSAISGRGRSTYYADSVKGRFTISRDNSRNTLYLQMNSLRAEDTAVYYCAKQKGYWGQGILVTVSS VL: QSALTQPPSASGSPGQSVTISCIGTSSDVGGYNYVSWYQQHPGKAPKLMIYEVSKRPSGVPDRFSGSKSGNTASLTVSGLQAEDEADYYCSSYAGSNNFGVFGGGTKLTVLG | 1 nM | 0.5 fold |  |  | 
BKO-4A8 combinatorial variant 4c (antibody, human IgG4 S228P, lambda, V domains shown, IgG4 S228P, lambda) VH: EVQLLESGGGLVQPGGSLRLSCAASGFTFSSSTQSWVRQPPGKGLEWVSAISGRGRSTYYADSVKGRFTISRDNSRNTLYLQMNSLRAEDTAVYYCAIQKGYWGQGILVTVSS VL: QSALTQPPSASGSPGQSVTISCIGTSSDVGGYNYVSWYQQHPGKAPKLMIYEVSKRPSGVPDRFSGSKSGNTASLTVSGLQAEDEADYYCSSYAGSNNFGVFGGGTKLTVLG | 0.4 nM | 1.25 fold |  |  | 
BKO-4A8 variant VH M96A (antibody, human IgG4 S228P, lambda, V domains shown, IgG4 S228P, lambda; parental light chain; also called 4A8 VH M96A) VH: EVQLLESGGGLVQPGGSLRLSCAASGFTFSSSTMSWVRQAPGKGLEWVSAISGRGRNTYYADSVKGRFTISRDNSRNTLYLQMNSLRAEDTAVYYCAIQAGYWGQGILVTVSS VL: QSALTQPPSASGSPGQSVTISCIGTSSDVGGYNYVSWYQQHPDKAPKLMIYEVNKRPSGVPDRFSGSKSGNTASLTVSGLQAEDEADYYCSSYAGNNNFGVFGGGTKLTVLG |  |  | 0.14 nM | 0.126 nM | 1.5 fold
BKO-4A8 variant VH I94K (antibody, human IgG4 S228P, lambda, V domains shown, IgG4 S228P, lambda; parental light chain; also called 4A8 VH I94K) VH: EVQLLESGGGLVQPGGSLRLSCAASGFTFSSSTMSWVRQAPGKGLEWVSAISGRGRNTYYADSVKGRFTISRDNSRNTLYLQMNSLRAEDTAVYYCAKQMGYWGQGILVTVSS VL: QSALTQPPSASGSPGQSVTISCIGTSSDVGGYNYVSWYQQHPDKAPKLMIYEVNKRPSGVPDRFSGSKSGNTASLTVSGLQAEDEADYYCSSYAGNNNFGVFGGGTKLTVLG |  |  | 0.078 nM | 0.071 nM | 0.7 fold
BKO-4A8 combinatorial variant 9b (antibody, human IgG4 S228P, lambda, V domains shown, IgG4 S228P, lambda) VH: EVQLLESGGGLVQPGGSLRLSCAASGFTFSSSTQSWVRQAPGKGLEWVSAISGRGRSTYYADSVKGRFTISRDNSKNTLYLQMNSLRAEDTAVYYCAIQKGYWGQGILVTVSS VL: QSALTQPPSASGSPGQSVTISCIGTSSDVGGYNYVSWYQQHPDKAPKLMIYEVSKRPSGVPDRFSGSKSGNTASLTVSGLQAEDEADYYCSSYAGSNNFGVFGGGTKLTVLG | 0.3 nM | 3 fold |  |  | 
BKO-4A8 combinatorial variant 6c (antibody, human IgG4 S228P, lambda, V domains shown, IgG4 S228P, lambda) VH: EVQLLESGGGLVQPGGSLRLSCAASGFTFSSSTQSWVRQPPGKGLEWVSAISGRGRSTYYADSVKGRFTISRDNSKNTLYLQMNSLRAEDTAVYYCAKQKGYWGQGILVTVSS VL: QSALTQPPSASGSPGQSVTISCIGTSSDVGGYNYVSWYQQHPGKAPKLMIYEVSKRPSGVPDRFSGSKSGNTASLTVSGLQAEDEADYYCSSYAGSNNFGVFGGGTKLTVLG | 0.9 nM | 0.44 fold |  |  | 

Next, values leading:

EC50 (human CXCR2 [1]) | Fold Improvement over 4A8 WT (human CXCR2 [1]) | IC50, CXCL1, Tango assay (human CXCR2 [2]) | IC50, CXCL8, Tango assay (human CXCR2 [2]) | Fold change in binding relative to BKO-4A8 (human CXCR2 [3]) | Binder
0.4 nM | 1 fold |  |  |  | BKO-4A8 combinatorial variant 6b (antibody, human IgG4 S228P, lambda, V domains shown, IgG4 S228P, lambda) VH: EVQLLESGGGLVQPGGSLRLSCAASGFTFSSSTQSWVRQPPGKGLEWVSAISGRGRSTYYADSVKGRFTISRDNSKNTLYLQMNSLRAEDTAVYYCAKQKGYWGQGILVTVSS VL: QSALTQPPSASGSPGQSVTISCIGTSSDVGGYNYVSWYQQHPDKAPKLMIYEVSKRPSGVPDRFSGSKSGNTASLTVSGLQAEDEADYYCSSYAGSNNFGVFGGGTKLTVLG
0.4 nM | 1.25 fold |  |  |  | BKO-4A8 combinatorial variant 5b (antibody, human IgG4 S228P, lambda, V domains shown, IgG4 S228P, lambda) VH: EVQLLESGGGLVQPGGSLRLSCAASGFTFSSSTQSWVRQPPGKGLEWVSAISGRGRSTYYADSVKGRFTISRDNSKNTLYLQMNSLRAEDTAVYYCAIQKGYWGQGILVTVSS VL: QSALTQPPSASGSPGQSVTISCIGTSSDVGGYNYVSWYQQHPDKAPKLMIYEVSKRPSGVPDRFSGSKSGNTASLTVSGLQAEDEADYYCSSYAGSNNFGVFGGGTKLTVLG
0.4 nM | 1.25 fold |  |  |  | BKO-4A8 combinatorial variant 4b (antibody, human IgG4 S228P, lambda, V domains shown, IgG4 S228P, lambda) VH: EVQLLESGGGLVQPGGSLRLSCAASGFTFSSSTQSWVRQPPGKGLEWVSAISGRGRSTYYADSVKGRFTISRDNSRNTLYLQMNSLRAEDTAVYYCAIQKGYWGQGILVTVSS VL: QSALTQPPSASGSPGQSVTISCIGTSSDVGGYNYVSWYQQHPDKAPKLMIYEVSKRPSGVPDRFSGSKSGNTASLTVSGLQAEDEADYYCSSYAGSNNFGVFGGGTKLTVLG
0.5 nM | 1 fold |  |  |  | BKO-4A8 combinatorial variant 10c (antibody, human IgG4 S228P, lambda, V domains shown, IgG4 S228P, lambda) VH: EVQLLESGGGLVQPGGSLRLSCAASGFTFSSSTMSWVRQAPGKGLEWVSAISGRGRNTYYADSVKGRFTISRDNSRNTLYLQMNSLRAEDTAVYYCAKQKGYWGQGILVTVSS VL: QSALTQPPSASGSPGQSVTISCIGTSSDVGGYNYVSWYQQHPGKAPKLMIYEVSKRPSGVPDRFSGSKSGNTASLTVSGLQAEDEADYYCSSYAGSNNFGVFGGGTKLTVLG
0.4 nM | 1.25 fold |  |  |  | BKO-4A8 combinatorial variant 5c (antibody, human IgG4 S228P, lambda, V domains shown, IgG4 S228P, lambda) VH: EVQLLESGGGLVQPGGSLRLSCAASGFTFSSSTQSWVRQPPGKGLEWVSAISGRGRSTYYADSVKGRFTISRDNSKNTLYLQMNSLRAEDTAVYYCAIQKGYWGQGILVTVSS VL: QSALTQPPSASGSPGQSVTISCIGTSSDVGGYNYVSWYQQHPGKAPKLMIYEVSKRPSGVPDRFSGSKSGNTASLTVSGLQAEDEADYYCSSYAGSNNFGVFGGGTKLTVLG
0.3 nM | 1.67 fold |  |  |  | BKO-4A8 combinatorial variant 10b (antibody, human IgG4 S228P, lambda, V domains shown, IgG4 S228P, lambda) VH: EVQLLESGGGLVQPGGSLRLSCAASGFTFSSSTMSWVRQAPGKGLEWVSAISGRGRNTYYADSVKGRFTISRDNSRNTLYLQMNSLRAEDTAVYYCAKQKGYWGQGILVTVSS VL: QSALTQPPSASGSPGQSVTISCIGTSSDVGGYNYVSWYQQHPDKAPKLMIYEVSKRPSGVPDRFSGSKSGNTASLTVSGLQAEDEADYYCSSYAGSNNFGVFGGGTKLTVLG
 |  | 0.186 nM | 0.107 nM | 0.8 fold | BKO-4A8 variant VH M34H (antibody, human IgG4 S228P, lambda, V domains shown, IgG4 S228P, lambda; parental light chain; also called 4A8 VH M34H) VH: EVQLLESGGGLVQPGGSLRLSCAASGFTFSSSTHSWVRQAPGKGLEWVSAISGRGRNTYYADSVKGRFTISRDNSRNTLYLQMNSLRAEDTAVYYCAIQMGYWGQGILVTVSS VL: QSALTQPPSASGSPGQSVTISCIGTSSDVGGYNYVSWYQQHPDKAPKLMIYEVNKRPSGVPDRFSGSKSGNTASLTVSGLQAEDEADYYCSSYAGNNNFGVFGGGTKLTVLG
 |  | 0.242 nM | 0.0776 nM | 1 fold | BKO-4A8 variant VH M34Q (antibody, human IgG4 S228P, lambda, V domains shown, IgG4 S228P, lambda; parental light chain; also called 4A8 VH M34Q) VH: EVQLLESGGGLVQPGGSLRLSCAASGFTFSSSTQSWVRQAPGKGLEWVSAISGRGRNTYYADSVKGRFTISRDNSRNTLYLQMNSLRAEDTAVYYCAIQMGYWGQGILVTVSS VL: QSALTQPPSASGSPGQSVTISCIGTSSDVGGYNYVSWYQQHPDKAPKLMIYEVNKRPSGVPDRFSGSKSGNTASLTVSGLQAEDEADYYCSSYAGNNNFGVFGGGTKLTVLG
0.8 nM | 0.63 fold |  |  |  | BKO-4A8 combinatorial variant 7b (antibody, human IgG4 S228P, lambda, V domains shown, IgG4 S228P, lambda) VH: EVQLLESGGGLVQPGGSLRLSCAASGFTFSSSTQSWVRQPPGKGLEWVSAISGRGRSTYYADSVKGRFTISRDNSRNTLYLQMNSLRAEDTAVYYCAKQKGYWGQGILVTVSS VL: QSALTQPPSASGSPGQSVTISCIGTSSDVGGYNYVSWYQQHPDKAPKLMIYEVSKRPSGVPDRFSGSKSGNTASLTVSGLQAEDEADYYCSSYAGSNNFGVFGGGTKLTVLG
6.4 nM | 0.14 fold |  |  |  | BKO-4A8 combinatorial variant 9c (antibody, human IgG4 S228P, lambda, V domains shown, IgG4 S228P, lambda) VH: EVQLLESGGGLVQPGGSLRLSCAASGFTFSSSTQSWVRQAPGKGLEWVSAISGRGRSTYYADSVKGRFTISRDNSKNTLYLQMNSLRAEDTAVYYCAIQKGYWGQGILVTVSS VL: QSALTQPPSASGSPGQSVTISCIGTSSDVGGYNYVSWYQQHPGKAPKLMIYEVSKRPSGVPDRFSGSKSGNTASLTVSGLQAEDEADYYCSSYAGSNNFGVFGGGTKLTVLG
